# Patent publication US20230263863A1, “COMPOSITIONS HAVING NEUROREGENERATIVE APPLICATIONS” (GRIFOLS WORLDWIDE OPERATIONS LIMITED, priority 2020, published 2023)
# B1: apo-lactoferrin: structural and functional homologue of apo-transferrin, from Athens Research & Technology (protein, UniProt P02788 20-710, looked up)
# Lactotransferrin: GRRRSVQWCAVSQPEATKCFQWQRNMRKVRGPPVSCIKRDSPIQCIQAIAENRADAVTLDGGFIYEAGLAPYKLRPVAAEVYGTERQPRTHYYAVAVVKKGGSFQLNELQGLKSCHTGLRRTAGWNVPIGTLRPFLNWTGPPEPIEAAVARFFSASCVPGADKGQFPNLCRLCAGTGENKCAFSSQEPYFSYSGAFKCLRDGAGDVAFIRESTVFEDLSDEAERDEYELLCPDNTRKPVDKFKDCHLARVPSHAVVARSVNGKEDAIWNLLRQAQEKFGKDKSPKFQLFGSPSGQKDLLFKDSAIGFSRVPPRIDSGLYLGSGYFTAIQNLRKSEEEVAARRARVVWCAVGEQELRKCNQWSGLSEGSVTCSSASTTEDCIALVLKGEADAMSLDGGYVYTAGKCGLVPVLAENYKSQQSSDPDPNCVDRPVEGYLAVAVVRRSDTSLTWNSVKGKKSCHTAVDRTAGWNIPMGLLFNQTGSCKFDEYFSQSCAPGSDPRSNLCALCIGDEQGENKCVPNSNERYYGYTGAFRCLAENAGDVAFVKDVTVLQNTDGNNNEAWAKDLKLADFALLCLDGKRKPVTEARSCHLAMAPNHAVVSRMDKVERLKQVLLHQQAKFGRNGSDCPDKFCLFQSETKNLLFNDNTECLARLHGKTTYEKYLGPQYVAGITNLKKCSTSPLLEACEFLRK
# modifications: apo form
# notes: structural and functional homologue of apo-transferrin, from Athens Research & Technology
# B2: N-mut rec ApoTf: Y95F/Y188F transferrin N-lobe mutant protein, SEQ ID NO: 4, reduced iron-binding capacity (protein)
# chain: VPDKTVRWCAVSEHEATKCQSFRDHMKSVIPSDGPSVACVKKASYLDCIRAIAANEADAVTLDAGLVYDAYLAPNNLKPVVAEFYGSKEDPQTFFYAVAVVKKDSGFQMNQLRGKKSCHTGLGRSAGWNIPIGLLYCDLPEPRKPLEKAVANFFSGSCAPCADGTDFPQLCQLCPGCGCSTLNQYFGFSGAFKCLKDGAGDVAFVKHSTIFENLANKADRDQYELLCLDNTRKPVDEYKDCHLAQVPSHTVVARSMGGKEDLIWELLNQAQEHFGKDKSKEFQLFSSPHGKDLLFKDSAHGFLKVPPRMDAKMYLGYEYVTAIRNLREGTCPEAPTDECKPVKWCALSHHERLKCDEWSVNSVGKIECVSAETTEDCIAKIMNGEADAMSLDGGFVYIAGKCGLVPVLAENYNKSDNCEDTPEAGYFAVAVVKKSASDLTWDNLKGKKSCHTAVGRTAGWNIPMGLLYNKINHCRFDEFFSEGCAPGSKKDSSLCKLCMGSGLNLCEPNNKEGYYGYTGAFRCLVEKGDVAFVKHQTVPQNTGGKNPDPWAKNLNEKDYELLCLDGTRKPVEEYANCHLARAPNHAVVTRKDKEACVHKILRQQQHLFGSNVTDCSGNFCLFRSETKDLLFRDDTVCLAKLHDRNTYEKYLGEEYVKAVGNLRKCSTSSLLEACTFRRP
# modifications: Y95F/Y188F mutant
# B3: BDNF: brain-derived neurotrophic factor; NGF superfamily; SEQ ID NO: 6 (protein, listed as Homo sapiens)
# chain: MFHQVRRVMTILFLTMVISYFGCMKAAPMKEANIRGQGGLAYPGVRTHGTLESVNGPKAGSRGLTSLADTFEHVIEELLDEDQKVRPNEENNKDADLYTSRVMLSSQVPLEPPLLFLLEEYKNYLDAANMSMRVRRHSDPARRGELSVCDSISEWVTAADKKTAVDMSGGTVTVLEKVPVSKGQLKQYFYETKCNPMGYTKEGCRGIDKRHWNSQCRTTQSYVRALTMDSKKRIGWRFIRIDTSCVCTLTIKRGR
# Test system: SH-SY5Y cells
# Assay: Neurite outgrowth (Outgrowth Fold Change) in undifferentiated SH-SY5Y cells
# Type: cell-based, human
# Conditions: for neurogenesis / differentiation (neurite outgrowth): all proteins 0.2 mg/mL
# Description: Undifferentiated SH-SY5Y cells were seeded into 96 well clear bottom plates in media containing 0.1% FBS. A serum-free base media was utilized as recommended by the supplier for SH-SY5Y cells (Sigma, Cat #94030304-1VL). Twenty-four hours after seeding cells, a 3× stock solution of ApoTf, final concentrations indicated on the x-axis, in serum free base media was added to the cells. ApoTf was obtained and purified from pooled human plasma and dosed at a final concentration of 0.2 mg/mL. Cells were allowed to differentiate for 6 days. Neurite growth was assessed by imaging and image analysis. At the time of analysis, a 10× solution of Tubulin Tracker (Molecular Probes, T34075) and Hoechst 33342 (Molecular Probes #H3570) nuclear stain was prepared.
# Briefly, Tubulin Tracker dissolved in DMSO was diluted 1:1 with Pluronic F-127 and further diluted into HBSS to generate a 10× solution. Hoechst 33342 was added to the HBSS-Tubulin Tracker solution at 10 μg/mL to generate a 10× nuclear stain. The 10× staining solution (10 μL) was added directly to treated assay wells and incubated at 37° C. for 30 minutes. Following incubation, 110 μL of 0.4% Trypan Blue was added directly to assay wells and imaged on a Molecular Devices Nano imaging instrument. Nine images/well were acquired in the blue (Nuclei) and green (Tubulin) fluorescent channels for each image.
# After obtaining images, the MetaExpress Neurite Outgrowth analysis module (Molecular Devices) was used to identify cells, cell bodies, and quantify neurites. The total number of neurite branches were divided by the total number of cells imaged to account for different numbers of cells in each test well. The Outgrowth Fold Change was determined by setting the untreated control cells to a value of 1 with all other treatments shown relative to untreated control.
molecule,measurement,setting,value
B1,neurogenesis / differentiation (neurite outgrowth),FIG. 4,induced differentiation
B2,neurogenesis / differentiation (neurite outgrowth),FIG. 3B,almost equal to that of ApoTf and rec ApoTf at inducing differentiation
B3,"differentiation (neurite outgrowth), factor alone","FIGS. 7A-7D, absence of ApoTf, BDNF 25 ng/mL, GDNF 1000 ng/mL, CNTF 250 ng/mL, PACAP 200 nM",differentiation was not induced
